Results: the Human Domainome abundance scans (Beltran et al. 2025)
± gives the uncertainty stated by the source.

B1: POU domain, class 2, transcription factor 1, residues 285 to 354; numbered along this chain, P14859 (parent)
chain: LEELEQFAKTFKQRRIKLGFTQGDVGLAMGKLYGNDFSQTTISRFEALNLSFKNMCKLKPLLEKWLNDAE

Variants of: B1
Assay: abundance fitness (aPCA) (normalised: wild type 0, dead -1); higher = more abundant; growth selection in yeast, the domain comes from the species named
Settings: Homo sapiens

In order of falling abundance fitness:
1. LEELEQFAKTFKQRRIKLGFTQGDVGLAMGKLYGNDFSQTTISRFEALNLSHKNMCKLKPLLEKWLNDAE [F52H]  0.059 ± 0.046
2. LKELEQFAKTFKQRRIKLGFTQGDVGLAMGKLYGNDFSQTTISRFEALNLSFKNMCKLKPLLEKWLNDAE [E2K]  0.053 ± 0.037
3. LEELEQFAKTFKQRRIKLGFTQGDVGLAVGKLYGNDFSQTTISRFEALNLSFKNMCKLKPLLEKWLNDAE [M29V]  0.031 ± 0.023
4. LEELEQFAKTFKQRRIKLGFTQGDVGLAMGKLYGNDFSQTTISRFEALNLSFKNMTKLKPLLEKWLNDAE [C56T]  0.023 ± 0.027
5. LEELEQFAKTFKQRRIKLGFTQGDVGLAMFKLYGNDFSQTTISRFEALNLSFKNMCKLKPLLEKWLNDAE [G30F]  0.014 ± 0.024
6. LEELEQFAKTFKQRRIKLGFTQGDVGLAMRKLYGNDFSQTTISRFEALNLSFKNMCKLKPLLEKWLNDAE [G30R]  0.01 ± 0.028
7. LEELEQFAKTFKQRRIKLGFTPGDVGLAMGKLYGNDFSQTTISRFEALNLSFKNMCKLKPLLEKWLNDAE [Q22P]  0.001 ± 0.031
8. LEELEQFAKTFKQRRIKLGFTQGDVGLAIGKLYGNDFSQTTISRFEALNLSFKNMCKLKPLLEKWLNDAE [M29I]  -0.006 ± 0.042
9. LEELEQFAKTFIQRRIKLGFTQGDVGLAMGKLYGNDFSQTTISRFEALNLSFKNMCKLKPLLEKWLNDAE [K12I]  -0.007 ± 0.04
10. LEELEQFAKTFKQRRIKLGFTQGDVGLAMGKLYGNDFKQTTISRFEALNLSFKNMCKLKPLLEKWLNDAE [S38K]  -0.011 ± 0.018
11. LEELEQFAKTFTQRRIKLGFTQGDVGLAMGKLYGNDFSQTTISRFEALNLSFKNMCKLKPLLEKWLNDAE [K12T]  -0.012 ± 0.03
12. LEELEQFAKTFKQRRIKLGFTQGDVGLAMGKLYGNDFSQTTISRFEALNLSKKNMCKLKPLLEKWLNDAE [F52K]  -0.024 ± 0.032
13. LEELEQFAKTFKQRRIKLGFTQGDVGLAMGKLYGNDFSQTVISRFEALNLSFKNMCKLKPLLEKWLNDAE [T41V]  -0.029 ± 0.032
14. LEELEQFAKTFKQRRIKLGFTQGDVGLAMKKLYGNDFSQTTISRFEALNLSFKNMCKLKPLLEKWLNDAE [G30K]  -0.034 ± 0.074
15. LEELEQFAKTFKQRRIKLGFTQGDVGLAMGKLYGNDFSQTTISRFEALNLSNKNMCKLKPLLEKWLNDAE [F52N]  -0.039 ± 0.041
16. LEELEQFAKTFSQRRIKLGFTQGDVGLAMGKLYGNDFSQTTISRFEALNLSFKNMCKLKPLLEKWLNDAE [K12S]  -0.044 ± 0.024
17. LEELEQFAKTFKQRRIKLGFTQGDVGLAMGKLYGNDFSQTTISRFEALNLSFKNMCKLKCLLEKWLNDAE [P60C]  -0.051 ± 0.058
18. LEELEQFAKTFMQRRIKLGFTQGDVGLAMGKLYGNDFSQTTISRFEALNLSFKNMCKLKPLLEKWLNDAE [K12M]  -0.062 ± 0.032
19. LEELEQFAKTFKQRRIKLGFTQGDVGLAMGKLYGNDFSQTTISRFEALNLSFKNMCKAKPLLEKWLNDAE [L58A]  -0.062 ± 0.021
20. LEELEQFAKTFKQRRIKLGFTQGDVGLACGKLYGNDFSQTTISRFEALNLSFKNMCKLKPLLEKWLNDAE [M29C]  -0.092 ± 0.049
21. LEELEQFAKTFKQRRIKLGFTQGDVGLAMGKLYGNDFSQTTISRFEALNLSFKNMCKLKHLLEKWLNDAE [P60H]  -0.094 ± 0.034
22. LESLEQFAKTFKQRRIKLGFTQGDVGLAMGKLYGNDFSQTTISRFEALNLSFKNMCKLKPLLEKWLNDAE [E3S]  -0.105 ± 0.024
23. LEELEQFAKTFKQRRIKLGFTQGDVGLAMGKLYGNDFSQTTISRFEALNLSFKNMCKLKFLLEKWLNDAE [P60F]  -0.114 ± 0.037
24. LEELEQFAKTFKQRRIKLGFTQGDVGLAMGKLYGNDFSQTTISRFEALNLSFKNMCKYKPLLEKWLNDAE [L58Y]  -0.115 ± 0.057
25. LEELEQFAKTFKQRRIKLGFTHGDVGLAMGKLYGNDFSQTTISRFEALNLSFKNMCKLKPLLEKWLNDAE [Q22H]  -0.118 ± 0.063
26. LEELEQFAKTLKQRRIKLGFTQGDVGLAMGKLYGNDFSQTTISRFEALNLSFKNMCKLKPLLEKWLNDAE [F11L]  -0.147 ± 0.023
27. LEELEQFAKTFLQRRIKLGFTQGDVGLAMGKLYGNDFSQTTISRFEALNLSFKNMCKLKPLLEKWLNDAE [K12L]  -0.156 ± 0.02
28. LEELEQFAKTFKQRRIKLGFTQGDVGLAMGKLYGNDFSQTTISNFEALNLSFKNMCKLKPLLEKWLNDAE [R44N]  -0.165 ± 0.17
29. LEELEQFAKTAKQRRIKLGFTQGDVGLAMGKLYGNDFSQTTISRFEALNLSFKNMCKLKPLLEKWLNDAE [F11A]  -0.166 ± 0.029
30. LEELEQFAKTFKQRRIKLGFTQGDVGLAMGKLYGNDFSQTTISRFEALNLSFKNMCKSKPLLEKWLNDAE [L58S]  -0.178 ± 0.025
31. LEELEQFAKTFKQRRIKLGSTQGDVGLAMGKLYGNDFSQTTISRFEALNLSFKNMCKLKPLLEKWLNDAE [F20S]  -0.197 ± 0.036
32. LERLEQFAKTFKQRRIKLGFTQGDVGLAMGKLYGNDFSQTTISRFEALNLSFKNMCKLKPLLEKWLNDAE [E3R]  -0.207 ± 0.036
33. LEELEQFAKTFKQRRIKLGTTQGDVGLAMGKLYGNDFSQTTISRFEALNLSFKNMCKLKPLLEKWLNDAE [F20T]  -0.253 ± 0.032
34. LEWLEQFAKTFKQRRIKLGFTQGDVGLAMGKLYGNDFSQTTISRFEALNLSFKNMCKLKPLLEKWLNDAE [E3W]  -0.305 ± 0.042
35. LEELEQFAKTFKQRRIKLGFTQGDVGLAMGKLYGNDFSQTTISRFEALNLSFKNMCKLKPLLEKRLNDAE [W65R]  -0.753 ± 0.035
36. LEELEQFAKTFKQRRIKLGFTQGDVGLAMGKLYGNDFSQTTISRFEALNLSFKNMCKLKPLLEKKLNDAE [W65K]  -0.961 ± 0.11
37. LEELEQFAKTFKQRRIKLGFTQGDVGLARGKLYGNDFSQTTISRFEALNLSFKNMCKLKPLLEKWLNDAE [M29R]  -0.998 ± 0.092
38. LEELEQFAKTFKQRRIKLGFTQGDVGLAMGKLYGNDFSQTTISPFEALNLSFKNMCKLKPLLEKWLNDAE [R44P]  -1.02 ± 0.078
